We go through three molecules from PMC4552487 (EMBO Reports, 2015).

Details in all cases: both partners purified
For assay [1], the target named is T1, Parkin (80-465)-Biotin, wild type (UniProt O60260 80-465, biotin (position not given)).
T1 sequence (looked up): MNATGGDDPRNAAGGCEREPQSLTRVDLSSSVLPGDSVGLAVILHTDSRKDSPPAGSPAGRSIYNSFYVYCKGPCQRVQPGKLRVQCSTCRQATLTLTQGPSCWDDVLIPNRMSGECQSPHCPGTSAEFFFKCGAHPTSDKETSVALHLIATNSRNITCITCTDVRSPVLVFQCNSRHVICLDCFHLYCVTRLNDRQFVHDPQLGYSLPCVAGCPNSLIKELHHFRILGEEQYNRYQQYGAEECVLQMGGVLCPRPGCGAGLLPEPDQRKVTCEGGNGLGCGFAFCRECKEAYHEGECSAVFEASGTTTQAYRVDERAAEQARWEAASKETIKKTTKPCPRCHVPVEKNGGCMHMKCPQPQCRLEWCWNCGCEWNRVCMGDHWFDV
Nature of the assay: AlphaScreen or HTRF; GST-Ubl (1-76) on glutathione acceptor beads and Parkin (80-465)-biotin (WT or H302A) on streptavidin donor beads, 10 nM each; inhibitor proteins in three-fold 10-point dilutions; PBS + 0.1% BSA + 0.1% Triton X-100; RT. (In Alpha technology, singlet oxygen from a donor bead excites a nearby acceptor bead.)

Assay [2] has as its target Ser65-phosphorylated ubiquitin (ubiquitin^Phospho-Ser65) (bovine, UniProt P0CG53 1-76, phosphoserine at 65). The experiment in a line: ITC; ubiquitin^PhosSer65 in the syringe titrated into 50 μM wild-type or mutant Parkin in the cell; 50 mM HEPES pH 8.0, 150 mM NaCl, 500 μM TCEP; 20°C; single binding site model.
In assay [3] the target is Ser65-phosphorylated Dac-ubiquitin (Dac-ubiquitin^PhosSer65) (UniProt P0CG47 1-76, phosphoserine at 65 of ubiquitin). The experiment in a line: SEC; Superdex 200 Increase 10/300 GL; 50 mM Tris pH 7.5, 150 mM NaCl; 100 μg of each protein, mixtures incubated for 30 min before chromatography.

B1: GST-Ubl (Parkin Ubl domain, residues 1-76) (domain or fragment, UniProt O60260 1-76, looked up)
chain: MIVFVRFNSSHGFPVEVDSDTSIFQLKEVVAKRQGVPADQLRVIFAGKELRNDWTVQNCDLDQQSIVHIVQRPWRK
As for B1, the binding result in assay [1] is recorded as “binds”.

B2: full-length Parkin Lys151Ala (K151A) mutant, untagged (enzyme, UniProt O60260 1-465, looked up)
chain: MIVFVRFNSSHGFPVEVDSDTSIFQLKEVVAKRQGVPADQLRVIFAGKELRNDWTVQNCDLDQQSIVHIVQRPWRKGQEMNATGGDDPRNAAGGCEREPQSLTRVDLSSSVLPGDSVGLAVILHTDSRKDSPPAGSPAGRSIYNSFYVYCAGPCQRVQPGKLRVQCSTCRQATLTLTQGPSCWDDVLIPNRMSGECQSPHCPGTSAEFFFKCGAHPTSDKETSVALHLIATNSRNITCITCTDVRSPVLVFQCNSRHVICLDCFHLYCVTRLNDRQFVHDPQLGYSLPCVAGCPNSLIKELHHFRILGEEQYNRYQQYGAEECVLQMGGVLCPRPGCGAGLLPEPDQRKVTCEGGNGLGCGFAFCRECKEAYHEGECSAVFEASGTTTQAYRVDERAAEQARWEAASKETIKKTTKPCPRCHVPVEKNGGCMHMKCPQPQCRLEWCWNCGCEWNRVCMGDHWFDV
With B2, in assay [2], the Kd (in general, the constant that tells how readily two partners part at equilibrium) is roughly 7 µM.

B3: Parkin 1-465 S65A (enzyme, UniProt O60260 1-465, looked up)
chain: MIVFVRFNSSHGFPVEVDSDTSIFQLKEVVAKRQGVPADQLRVIFAGKELRNDWTVQNCDLDQQAIVHIVQRPWRKGQEMNATGGDDPRNAAGGCEREPQSLTRVDLSSSVLPGDSVGLAVILHTDSRKDSPPAGSPAGRSIYNSFYVYCKGPCQRVQPGKLRVQCSTCRQATLTLTQGPSCWDDVLIPNRMSGECQSPHCPGTSAEFFFKCGAHPTSDKETSVALHLIATNSRNITCITCTDVRSPVLVFQCNSRHVICLDCFHLYCVTRLNDRQFVHDPQLGYSLPCVAGCPNSLIKELHHFRILGEEQYNRYQQYGAEECVLQMGGVLCPRPGCGAGLLPEPDQRKVTCEGGNGLGCGFAFCRECKEAYHEGECSAVFEASGTTTQAYRVDERAAEQARWEAASKETIKKTTKPCPRCHVPVEKNGGCMHMKCPQPQCRLEWCWNCGCEWNRVCMGDHWFDV
For B3, in assay [3], the binding result was “binds”.
